According to US20210147523A1 (TEIJIN PHARMA, published 2021):
Substitutions are numbered along the chain they refer to.

B1: 65-0810G (antibody, IgG2b, V domains shown)
VH: EVHLVESGGGLVQPGRSMKLSCTASGFTFNNYYMAWVRQAPTKGLEWVASISTGGGYTYYRDSVKGRFTISRDNTGNTLYLQMDSLRSEDTATYYCARCWELPYWGQGVMVTVSS
VL: QFVLTQPNSVSTNLGSTVKLSCRRSSGNIGNNYVNWYRQHEGRSPTTMIYRDDTRPDGVPNRFSGSIDRSSNSALLTINNVRPEDEAYYFCQSYSGSIYIFGGGTKLTVL
B2: 37-0511F (antibody, IgG2b, V domains shown)
VH: EVHLQQSGAALVRPRASVKLSCKVSGDSISRYYVHFVKQRPGQGLEWIGRIDPEDDTTKYSEKFKNRATLTADASSDTASLILSGLTSDDTATYFCSTLTGLDYWGQGVMVTVSS
VL: DIQMTQSPPVLSTSVGDRVTLRCKPSQNVHSKLDWYQQKHGEAPKLLIYYTHNLQTGIPSRFSGSGSGTDYTLTISSLQPEDVATYYCFQYYSGWTFGGGTKLEMKR
B3: 53-0707E (antibody, IgG2b, V domains shown)
VH: B2 VH with H3Q, A10E, A16T, S30T, N66K, R67K, D77N, S80Y, L83F, D89E
VL: B2 VL with P25A
B4: 64-0807A (antibody, IgG2b, V domains shown)
VH: EVQVVESGGGLVQPGRSMKLSCAALGFTFRDYYMAWVRQTPTKGLEWVAAISTGGGNTYYRDSVKGRFTISRDNAKSTLYLQMDSLRSDDTATYYCARNPYGNYFDYWGQGVMVTVSS
VL: QFVLSQPNSVSTNLGSTVKLSCKRSTGNIGSNYVHWYQRHEGRSPTTLIYRDDKRPNGVPDRFSGSIDRSSNSALLTINNVQTEDEADYFCQSYSGGMYLFGGGTKLTVL
B5: 84-1111F (antibody, IgG2b, V domains shown)
VH: B4 VH with Q82K
VL: B4 VL with L48M, K106T
B6: 80-1104A (antibody, IgG2b, V domains shown)
VH: EVQLVETGGGLVQPGSSLKLSCSTSGFTFSETWMSWVRQAPGKGLEWVGLIKDKNSNYEANYAESVKGRFTISRDDSKRRVYLQMYTLRDQDTATYYCTSHEDFYYYSSYYFDYWGQGVMVTVSS
VL: DIVLTQSPATLSVTPGESVSLSCRASQGISTSIHWYQQKSNESPRLLIKYASQSMSGIPSRFSGSGSGTDFTLRINRVESEDFSVYYCQQSYNLPLTFGSGTKLEIKR
B7: 96-1403F (antibody, IgG2b, V domains shown)
VH: B6 VH with Q13R, S23A, E31D, G49A, Y58S, V66I, R79S, Y86N, S100R, S109G
VL: B6 VL with A9P, K39R, M55I, S56A, T72I, R74S, S91T, N93S, S100P, I106V
B8: 93-1310F (antibody, IgG2b, V domains shown)
VH: B6 VH with S23A, E31D, G49A, Y86F, Q117H
VL: B6 VL with E42G, M55I, S91T, N93S, K103R
B9: 82-1109A (antibody, IgG2b, V domains shown)
VH: QVQLQQSGVELAKPGSSVKISCKASGNTFTSNYITWIKQTPGQGLEYIGYINTGSGKTYYNEKFKGKATLTADKSSSTAFMQLSSLTPDDSAVYFCASLTGVDYFDDWGQGVMVTVSS
VL: DDIVLTQSPALAPSLGQRATISCRASQSVRMSGYNLMHWYQQKPGQQPKLLIYDASKLASGIPARFSGSGSGTDFTLTIDPVQSDDIATYYCQQSKDDPYTFGAGTKLELRR
B10: 50-0704C (antibody, IgG2b, V domains shown)
VH: EVQLVGSGGGLVQPGRSMKLSCEASGFTFSNHYMAWVRQAPTKGLEWVATISTGGGNTYYRDSVKGRFTISRDNARSTLSLQMDSLRSEDTATYYCARQDYSNYMGGFAYWGQGTLVTVSS
VL: QFVLTQPNSVSTNLGSTVKLSCTRSIGNIGNNYVNWYKQYEGRSPTTMIYRDDERPDGVPDRFSGSIDRSSNSALLTINSVQTEDEADYFCQSFSSGIFIFGGGTKLTVL
B11: 89-1207D (antibody, IgG2b, V domains shown)
VH: B10 VH with T78I
VL: B10 VL with S80N, I98M
B12: 18-0211B (antibody, IgG2b, V domains shown)
VH: B10 VH with E1A, K43R, A75T, A97T, S102T
VL: B10 VL with M48L, E86G, K106T

Key:
human SPNS2 = molecular target: T1, human SPNS2 (human, UniProt Q8IVW8 1-549); assay: cell-based or functional assay
T1 sequence: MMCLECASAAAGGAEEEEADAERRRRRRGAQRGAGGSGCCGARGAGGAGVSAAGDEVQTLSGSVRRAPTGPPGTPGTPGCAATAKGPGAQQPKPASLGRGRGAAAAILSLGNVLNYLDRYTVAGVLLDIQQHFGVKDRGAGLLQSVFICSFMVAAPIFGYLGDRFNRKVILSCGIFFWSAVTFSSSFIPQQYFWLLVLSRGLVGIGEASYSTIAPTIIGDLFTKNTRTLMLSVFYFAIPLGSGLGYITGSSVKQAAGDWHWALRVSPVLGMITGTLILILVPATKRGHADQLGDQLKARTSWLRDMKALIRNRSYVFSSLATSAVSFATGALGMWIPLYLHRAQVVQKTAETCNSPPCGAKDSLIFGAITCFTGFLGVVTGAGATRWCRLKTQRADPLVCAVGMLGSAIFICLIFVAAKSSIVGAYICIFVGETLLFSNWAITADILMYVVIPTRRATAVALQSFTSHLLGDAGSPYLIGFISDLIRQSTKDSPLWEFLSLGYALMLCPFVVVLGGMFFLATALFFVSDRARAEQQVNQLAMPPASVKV

[1] = molecular target: T2, Mutant 1 of human SPNS2 (FLAG tag inserted in extracellular loop 1) (human, UniProt Q8IVW8 1-549); assay: flow cytometry, FLAG-insertion mutant
T2 construct: on HEK293 cells; also called extracellular loop 1 mutant
T2 sequence: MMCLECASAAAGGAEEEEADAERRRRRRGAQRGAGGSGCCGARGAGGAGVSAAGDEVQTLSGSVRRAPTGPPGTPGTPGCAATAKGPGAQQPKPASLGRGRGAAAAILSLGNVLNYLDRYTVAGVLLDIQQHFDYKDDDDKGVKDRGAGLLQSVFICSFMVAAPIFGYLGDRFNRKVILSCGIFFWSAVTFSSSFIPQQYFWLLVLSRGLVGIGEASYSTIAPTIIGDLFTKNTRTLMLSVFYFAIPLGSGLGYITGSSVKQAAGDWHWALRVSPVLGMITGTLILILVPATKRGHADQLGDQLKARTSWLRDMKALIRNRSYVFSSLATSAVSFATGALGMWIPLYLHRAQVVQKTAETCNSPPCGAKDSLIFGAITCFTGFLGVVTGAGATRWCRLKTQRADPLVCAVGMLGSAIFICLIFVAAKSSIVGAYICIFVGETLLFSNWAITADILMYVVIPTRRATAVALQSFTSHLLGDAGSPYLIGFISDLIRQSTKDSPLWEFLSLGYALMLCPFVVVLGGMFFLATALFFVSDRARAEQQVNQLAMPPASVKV
How it was run: (§1)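 Binding was scored by flow cytometry as FITC-positive over Alexa 647-positive cell rate: (+) <0.1, (±) 0.1–<0.5, (−) ≥0.5. Staining used anti-SPNS2 (anti-rat IgG-FITC) and anti-FLAG (anti-mouse IgG-Alexa 647) antibodies at 20 μg/mL each, 30 min at room temperature, on HEK 293 cells lipofected the previous day.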

[2] = molecular target: T3, Mutant 2 of human SPNS2 (FLAG tag inserted in extracellular loop 5) (human, UniProt Q8IVW8 1-549); assay: flow cytometry, FLAG-insertion mutant
T3 construct: on HEK293 cells; also called extracellular loop 5 mutant
T3 sequence: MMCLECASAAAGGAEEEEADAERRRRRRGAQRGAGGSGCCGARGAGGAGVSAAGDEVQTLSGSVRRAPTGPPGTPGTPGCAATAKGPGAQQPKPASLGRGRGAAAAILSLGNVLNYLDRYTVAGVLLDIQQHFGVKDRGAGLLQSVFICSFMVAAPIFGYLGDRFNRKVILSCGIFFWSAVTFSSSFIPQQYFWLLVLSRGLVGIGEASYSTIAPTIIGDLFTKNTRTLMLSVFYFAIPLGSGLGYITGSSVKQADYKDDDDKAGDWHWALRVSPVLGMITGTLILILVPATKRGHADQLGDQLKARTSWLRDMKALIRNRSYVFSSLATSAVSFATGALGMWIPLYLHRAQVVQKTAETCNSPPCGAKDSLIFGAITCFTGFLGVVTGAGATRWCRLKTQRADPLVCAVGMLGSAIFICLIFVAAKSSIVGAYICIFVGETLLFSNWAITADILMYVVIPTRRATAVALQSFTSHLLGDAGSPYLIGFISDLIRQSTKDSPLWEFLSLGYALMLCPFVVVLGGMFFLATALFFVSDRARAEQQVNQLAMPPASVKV
How it was run: as §1

[3] = molecular target: T4, Mutant 3 of human SPNS2 (FLAG tag inserted in extracellular loop 7) (human, UniProt Q8IVW8 1-549); assay: flow cytometry, FLAG-insertion mutant
T4 construct: on HEK293 cells; also called extracellular loop 7 mutant
T4 sequence: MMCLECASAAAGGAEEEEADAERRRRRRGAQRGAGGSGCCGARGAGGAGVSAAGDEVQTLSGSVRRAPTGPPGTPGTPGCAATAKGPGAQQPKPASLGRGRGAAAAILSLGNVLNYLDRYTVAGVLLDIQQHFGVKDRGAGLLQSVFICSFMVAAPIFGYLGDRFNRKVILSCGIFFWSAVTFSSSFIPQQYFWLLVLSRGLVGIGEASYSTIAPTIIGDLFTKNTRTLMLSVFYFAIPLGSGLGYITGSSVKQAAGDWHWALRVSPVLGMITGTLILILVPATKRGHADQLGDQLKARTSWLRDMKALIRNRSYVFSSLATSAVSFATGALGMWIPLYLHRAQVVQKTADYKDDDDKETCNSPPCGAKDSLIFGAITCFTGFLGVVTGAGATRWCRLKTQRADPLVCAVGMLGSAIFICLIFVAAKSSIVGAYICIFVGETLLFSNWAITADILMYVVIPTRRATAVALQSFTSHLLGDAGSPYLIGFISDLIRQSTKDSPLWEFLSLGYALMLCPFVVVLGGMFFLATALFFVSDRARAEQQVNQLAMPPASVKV
How it was run: as §1

| Binder | pIC50, S1P transport inhibition (LC-MS/MS of S1P) (human SPNS2) | FITC+/Alexa 647+ cell rate ratio [1] [ratio] | FITC+/Alexa 647+ cell rate ratio [2] [ratio] | FITC+/Alexa 647+ cell rate ratio [3] [ratio] |
| --- | --- | --- | --- | --- |
| B1 | 7.4 pIC50 (M) | < 0.1 | < 0.1 | ≥ 0.5 |
| B2 | 7.7 pIC50 (M) | < 0.1 | < 0.1 | – |
| B3 | 7.3 pIC50 (M) | < 0.1 | < 0.1 | – |
| B4 | 7.5 pIC50 (M) | < 0.1 | < 0.1 | ≥ 0.5 |
| B5 | 8.1 pIC50 (M) | < 0.1 | < 0.1 | ≥ 0.5 |
| B6 | 7.7 pIC50 (M) | < 0.1 | ≥ 0.5 | ≥ 0.5 |
| B7 | 7 pIC50 (M) | < 0.1 | – | ≥ 0.5 |
| B8 | 7.6 pIC50 (M) | < 0.1 | ≥ 0.5 | ≥ 0.5 |
| B9 | – | ≥ 0.5 | ≥ 0.5 | < 0.1 |
| B10 | 7.6 pIC50 (M) | < 0.1 | < 0.1 | ≥ 0.5 |
| B11 | 7.6 pIC50 (M) | < 0.1 | < 0.1 | ≥ 0.5 |
| B12 | 7.9 pIC50 (M) | < 0.1 | < 0.1 | ≥ 0.5 |
